Data from the NTF2 design screens of Basanta et al. (2020).

assay: protease stability score; higher = more stable; yeast display proteolysis, trypsin and chymotrypsin;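 also: log10 excess protease needed over predicted unfolded state with 0 meaning unfolded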

| Sequence | protease stability score |
| --- | --- |
| DEDINKMVKEFIRNMQNGNHSRLAQLADPNARVQIGDKTLHGREDLERHVRELTERSRVEYKSVDVKVHNGRAHLHLDVVVHHNGRPQRSRVQAVFTAQGDKIKDIRVESNQ | 0.116 |
| DEQLVKILQRFRKAMEHGDPKEAQKYFDPNAEFVYGDKEIHGREQVNTWIHTFMRSIRVDIKSLTVRASGNKAHIQYSAVYEENGRPKTAHFHMTVQVTNGKIKHADVKYRG | 1.1 |
| DDDQARKFVNIVQTGDEDKLLELAPPDVRVKVGDHRVHGRENVKRMVEKLKKSVDHFSIRQIHVHNGRVHVDMDVNVNGQTIRAEYVFVAHNGKLEEISIEVTDETVHDLMTRILS | 0.665 |
| DEHLVRLADRLLTAVRHGDEDRWVEQFDPNATVKIGDKELHGRSQIKTELERERDTSRVNVQRFSIEDQGDKAVVDVEYVITKNGRPQKDRAKATYNVNNGRFKNASMQKVS | -0.413 |
| DQHEQQKLAENVQKVLRKGDESRFQRLVDPNAKMTYGDKSLTGHERFRKWMQEFRHHADHVEFKEVSIHNGKLNMHAVIDVNGHKQTFVMHFQFHNGTVQHVEQTQT | 0.289 |
| DEEVQRQLENNWQKMREGDEEHLTRHVDENARFDVGDKRVRGMENYVKDVRREREEMHVNMTYDDMHVQGNEIRFTVRARWDVNGKPYDDNFDHKYEYHNGRLKSAHVRVDEDFERKRRK | -0.089 |
| DEDQHRRWQELMKAIETGDPERIKELMDPNAEFVVGDKHVRGREKYAREVHRELRTMRVEFRILSLRVQGDRLLADVEVVTHDDGKPTSHRFKLEVKAENGTIRVFRNQSVP | 0.155 |
| DEDDLRRLAEDFVRVLKTGDEDRLSELFDPNAKVSVGDHEYHGSENIVRALVEFARRVDELEVNSITIENGRVKIDAFATVNGKRVSVIIEIQYHNGRAKYVEFKYTSEEENRRFKN | 0.466 |
| DEEAQEVVEDMLRAIDKGDEDQIRRNVDKDAKVKVGNHELHGREQIAKFLSKERNEIEQSFQYESVTVDGDKIKFQFEMSRNVNGKPMRVSAQAEADAHNGKIRHFKVNVDTDVERRIDS | -0.165 |
| DESQQKHLTRLLEDNDFDRLAELADKHVRVEYGDQSYQGRETFQEMQEKLKKRADHLTYRSIDNQGDKIKVDFVLNVNGKDVRLQFDFRFNNGHIKEMTITATSEENLHKFEEALS | -0.094 |
| DEEDDARKAAEALKAFFKGDPEKFRDLADEDVQVRIGDNVYTGRTEANEAVENFKRQVDHVEFKDLNNRGNKVFADVVVRFNGEDIRVTLYAEVHNGKLKYMQVDPTAQKQLEK | 0.65 |
| DDSQVRSALEQAKTGNFQNLRNQLDPNAHVRVGDKTLNGKEEAVSYMQEFRDQVDRIRVDSVTTQGEKAVADLTVVINGHRVRFELVVNIRNGRAREVELRSTSEEIKKHLEHLDS | 0.481 |
| DEEAVKRVEHFMKNIREGNEQKAREYADKNATIHVGDKTVHGREDLERWVRQVKEEQRMDVRSFHATADNGNVDVKVTAEIEHNGQPRHHHYTAQFNISNGKIQSVTVDDHP | -0.099 |
| DEEAQRLLEKAMKALEQNNPQQFVNLLDPNATMIVGDKVYHGRESARKALDDIRSTMRVEVKDVKASAQGDKVQARMRVILDHNGKPSDRTQNITVRVHNGKMTSVELKTDT | 0.88 |
| DEETIRHEARKFQEDMKDGNHDEAVKYAPPNVKIQIGDKTFHGREQMKRFFKELRDEIDHVDLEHVTFHNGRLRVEVRFKINGQDFQVVFYFNYHNGQIENFKVQYRNEEEQQKVEG | 0.182 |
| EEEVEDQAKKYAKALHDNDPKTLSKLADKDAEFRYGDHQFHGREEVEKHWEKELKEIEVDWRVVDVKAHNGQVRIRFQAHRHHNGDPKNDNRKASARVTNGRIKKIEWVEDH | -0.059 |
| DRNRRAEEFARTQLKAFKHGDEKLLRDLFDPNVHISVGDQTVHGRDEVARQEKDQATQVDHATRKIDRVEMNGDQVEVRARIRLNFNGQDRSTDVVYHATDDNGHIVVKSVRQG | 0.017 |
| DRKLEEVFRKWLKAQKEGNPEVARKNADKDAKIVIGDTQIHGRDEMAEKVRHRKKHLQVDIKIKRMQIQGDKIKIKFEVVENHNGKPEKYKATAFARASDGNFKEMQVNKTG | 0.12 |
| DEEQNEHFSKVLQHGDFDRLAELMDPNAKAEVGDKTVHGREEFQRWIEHFKRQVDHIQYDRIDYHGNEIHASVRVHVNGNTIEFNVSLEFKNGRVTSFMMKARTKDDEDELRRLQS | 1.47 |
| DEHLQEVWENMLRAQENGDPDSFSRLVDPNVDFVYGDQTVHGREQAMTELKRRTDEIRFEIHHVDVRAQNGHIRVRIDQVKEHNGTPHREKTKNTIVADGDKVKSVEVRSDG | -0.256 |
| DEDAHRLVEEFWRALKDGDSEQIKELADKDVHVQVGDTKVHGREELASQVQRERDQMSVDLKIDHVELNEDHVDVEAKMVVEHNGKPKTNKAKLDFRFHNGKLQMMRRQTRQ | -0.184 |
| DEDEQRKIDETMHRLMEENNFDQLARTADENVRIVIGDKTYRGREQAVSAFRKLREHVDHADVKSVEIRNGRVLIKARLSFNGRTADVVFTFQFTNGRIQWAEVDPHAVRNARE | 1.06 |
| EEHDERTMHRLVETNDWETISRNADKDVKFQVGNKSYHGKEEFTEVLRKITKRADHIEYRSFNSHNGRIDVDYVFVVNGKEVKVFVQIQVHNGRIKHMRMRATNPDQQQELVDQLS | 1.44 |
| DERDVKRVEEWVKAEHTGDKDKMKELLDENAEIQIGDRSITGRETRAEELRKRQEQMRVRFRKVDFQHRNGQARVDMDVQNDHNGKPHTHRVDANFQLHNGKVQRVKMTSHK | 0.099 |
| DERDLEEVNRLVKHGNWHEFVKNADKNVRARVGDKRVHGREHFKSLAENWRRRIDHQSIKFVDVQGERAVVTMKMNVNGKTVEVMFSFVVSNGHIKEYEMRARNDDDETRLQEVRS | 0.478 |

| Sequence | protease stability score |
| --- | --- |
| DEEQIVNRLWTEAQKNWEEGNETEIANQFDPNARVNVGEKDYHGTEQIMKWVKEILRHADSVRYSIDSIDVNGDTVYVHFTMVMRHNGQKESERIIATMKVDNGEARFTDIKQG | 0.737 |
| DEEDKKRLDTFDDNEDRGDRTKVRELADPNAKYEYGDNTVHGREDLEKMVHHLKNQLRIRVKSVEKRMHNGTLRASQREQQDHNGRPDDNSFDQDVHIHNGRIKQNVVEERK | -0.15 |
| DEEMNKRAKRLVDVLRTGDFREFLEMVDPNARVQIGDKSWHGMEDYVHDLKEKRDQIKMHYEVKHMTAHDGRAHLEIDAEANVNGQPLSFSFTLHLQFQNGRVTHAEYQLDEDRLRKLEQ | 0.911 |
| DEKQQARDLVKELRDALKHGNEKQVVKMADENAKLQVGDKKVHGRKDIDKWAKDLRDRVDHVRLEVRSIDVHNGRMKFTATFTETHNGRKKERTMTMRARIQGDKFKIQQINLS | 0.247 |
| EDENTRKFVQYLKILKDGNEQELKKDMDPNAHIKVGDKTLSGMDKITDDVRRKLEEMTVDFTTVSAKAENGRLDVNMSLNNEVNGRPRSDDVTIEVRIHNGKFDHIIYHMDPNRLKEVER | -0.104 |
| DHQVVRSFMDVLETGDWDKLKDLVDPNAKMFYGNKDLTGRDAQTHFSEVMKRRVDEIKIDSYDMKGDSAWADFVLVFNGVEIRFILRVQFHNGNVISMRFEVTDPKQKTQLDRAAS | 0.714 |
| DEDQVRRVADKMFKMAVNGNKDEMKKLGKPNVEYKYLDKEYEGPDALKRVADKVKKIGAKVETQRREVKGDKVTAVFRYNDGDHTVQTTAEVQYEGDVVDRARVEITDEVKKVAHKG | -0.093 |
| DEHQRRKAKEFLDALRDGNPDDVKKYVDPNARRTVGDKSIHGRDQISHHVEKLKKKMRIEFRIQTITVHGNHIDIKAKMEFEINGKPNTHTFSQSMHAHNGKIKDIHVRIPEEVLRKSKR | -0.06 |
| DEDKRARKFADTMRKVLEKGNEEEFRDMMDKDVSFKYGDKEVRGREEAAKRLKDTVKRVDRVEVNIKSIHVQGDKVSIDMLIVNDHNGKHHHRRLVFYAKDDNGKLVVVKVTER | 1.86 |
| DERAVEVLERFLEAQKTGNEEDLKKQVDPNARIQIGDKQVHGMDQAARNLVDTYEEIQIDFRIDRMSAHNGNVTVEAHQQINVNGRPFRNSVTMHAYLQGDKAKEINYRVPEKFENEVKS | -0.326 |
| DTHAVEVWRRVLRAKETGDEKTLEKNFDPNARFQVGDKTLHGMEQQVTENKRERDDLRVHVEIKEVKDQGDKAFVDMVMTAEVNGQPYRIRVEVVAVVRNGKIKELVINMDPRQQEQLDS | 0.28 |
| DRDLNRHVKRFMDIIQNGDPDKAMEMVDPNVEFHVGDKRVHGQEELRELIKKEHDEQRKEIDDMRYDDRGSKAKINIEVRVEHNGRPNTVREDWNVEAKNGKIKRMNAKVDQ | -0.495 |
| DNENVNHVKTWFQNIQENNPDELIKLIDKDARLRVGDKEFHGREQAKKEIEKRIRHIELEFKHVQVDHHNGRVVAHAVYTQNRNGRPKKVNVRYVFQIHNGKIKRAEQDEDG | 0.263 |
| DERERERQLRDIFRVIQRGDQDRWKEQADENARIHVGDTRVHGQEEARKWFKELVDRADHFSVKRIEVNGDDMILTFEVEFNGKRHTVTIDFNVQNGRIQNINVDPEAERRIRK | 0.048 |
| DDEDRKKADEMLKALKHGDPDRVRELMDPNAKAVYGDKRIRGRDDFVEDMFRKQREIKIDMKIEEFRVNGNHAVFTVDVIEDKDGRPKRFKARVVITLHNGKIIDIKVEEEH | 1.25 |
| DEEAAKHVNRMLEKGDEKKIAQHVDKDARAHVGNQELHGREDIIRAVTRFRQQADHMRVDSYEVQGDRIEVTFEVVVNGHKMQLKATIRVDNGRIKHNKIQARSEEQTKQMQKLLD | -0.171 |
| DEEELKTIIRDMQSNDEERLANLFDEDAKVDVGDDVLHGREDVTKFFRKVNKRIDHFEIKTYDVRGEEVEVTVEAVVNGQRIKFVWVLTIKNGKAKSAKLSVTDKKQKRILEKNMD | 1.12 |
| DEDFMNKFEELLRNQQTGDPQFVADQADPNARWNVGDKQLHGRHQIRHQAKTESDQMEVQIDRMDVKVQNGHIDARINRQSNENGRPSRNELDQTVHYHNGKLKQLDESTSH | -0.44 |
| DQDAIRRLDEALRAEETGNEKQLKDLFDPNVEFVIGDDEYHGMDSYAKDVRRRKQNMRDHIEHVDMHDNGSQIHIRYRQVANINGTPVKYEITATAEVHNGRFKRMEYRIDEDEQRKLDS | 0.026 |
| DKDDLRRMHQLVTRNNPQKFKQQADKDAKVQYGDKTVTGMTDAARQMVKFWRQADHIEVKHVDVNGDKLNVVMRMNVNGRNLHMVVYYVVSNGHVRSASVTFTDPHQQEEFEKNAS | 0.316 |
| DEDDQVRKILETQDRAMRTGDEDTYVNQADKDVRVKVGDKKLRGREEWKKEVTRIIERVDHFDVHIDHIDHQGDKIVIRQVIVLEHDGRRDSKTYNMTARNKNGRVKWKEVTEK | -0.205 |
| DEKKAEDAARQMLEALRTGDPKRMVDHMDPNARALVGDTRYHGREEASKMVEHIRRRVDHVRVDNFRVRGNKLHLHAVFDSNGRRERVQIRADVHNGKIKVFEITSQ | 0.342 |
| DDDVMRRLLKWVKNGDWDVLAENADPNVRVNIGDFRVHGREQFKEWADKLHKKVDHFHYRDVKVNGDRVRFDFIEHFNGKTIDMDMTARAHNGRITSLDVNVRSEDDKHAFKELVS | 1.1 |
| EEHLKQTFKEYMENYRTGNEEQLHSMVDEEAKFSYGDKKIHGRTEAIKQLVRRREEMRWDVQIKDMEVHNGRIEVDARVRFKHNGQPDDQKVVFRAVIHNGRFKMISEQYQP | 0.376 |
| DEDKQRKRAETAAHIVENNNPDEQNKLADKDVTMQVGETQVHGREDLKELMEEMREQFDHIRVRSFDAHGNKVRLRFHAEYNGVTLEFVIINNYHNGKVQSINLRVTNPEEFRKAQG | 0.122 |
